{"source": "FireProtDB (doi:10.1182/blood-2007-11-122457)"}
{"conditions": "Homo sapiens; pH 7.4; Thermal; DSC; Sodium phosphate 10mM; NaCl 130 mM; transition: 2; reversible: yes; structure 1OWA", "units": {"Tm": "°C", "change of melting temperature, mutant - wild type (higher = more stable)": "°C"}}
{"substance": "Spectrin alpha chain, erythrocytic 1, P02549 G46V", "Tm": 52.8, "change of melting temperature, mutant - wild type (higher = more stable)": -1.8}
{"substance": "Spectrin alpha chain, erythrocytic 1, P02549 I24S", "Tm": 53.2, "change of melting temperature, mutant - wild type (higher = more stable)": -1.4}
{"substance": "Spectrin alpha chain, erythrocytic 1, P02549 I24T", "Tm": 54.4, "change of melting temperature, mutant - wild type (higher = more stable)": -0.2}
{"substance": "Spectrin alpha chain, erythrocytic 1, P02549 K48R", "Tm": 54.7, "change of melting temperature, mutant - wild type (higher = more stable)": 0.1}
{"substance": "Spectrin alpha chain, erythrocytic 1, P02549 L49F", "Tm": 55.4, "change of melting temperature, mutant - wild type (higher = more stable)": 0.8}
{"substance": "Spectrin alpha chain, erythrocytic 1, P02549 R28H", "Tm": 53.6, "change of melting temperature, mutant - wild type (higher = more stable)": -1}
{"substance": "Spectrin alpha chain, erythrocytic 1, P02549 R28L", "Tm": 53.1, "change of melting temperature, mutant - wild type (higher = more stable)": -1.5}
{"substance": "Spectrin alpha chain, erythrocytic 1, P02549 R28S", "Tm": 53.3, "change of melting temperature, mutant - wild type (higher = more stable)": -1.3}
{"substance": "Spectrin alpha chain, erythrocytic 1, P02549 R34W", "Tm": 49.1, "change of melting temperature, mutant - wild type (higher = more stable)": -5.5}
{"substance": "Spectrin alpha chain, erythrocytic 1, P02549 R45S", "Tm": 55.1, "change of melting temperature, mutant - wild type (higher = more stable)": 0.5}
{"substance": "Spectrin alpha chain, erythrocytic 1, P02549 R45T", "Tm": 54.6, "change of melting temperature, mutant - wild type (higher = more stable)": 0}
{"substance": "Spectrin alpha chain, erythrocytic 1, P02549 V31A", "Tm": 54.5, "change of melting temperature, mutant - wild type (higher = more stable)": -0.1}
